Here are results for one molecule from article PMC12094245.

In the experiment the target is human recombinant NEK2 protein (Abcam, ab42599), RED-NHS labelled (human) (UniProt P51955). Briefly: MST.

B1: SPTLC1 protein tested in the MST assay (enzyme)
chain: MATATEQWVLVEMVQALYEAPAYHLILEGILILWIIRLLFSKTYKLQERSDLTVKEKEELIEEWQPEPLVPPVPKDHPALNYNIVSGPPSHKTVVNGKECINFASFNFLGLLDNPRVKAAALASLKKYGVGTCGPRGFYGTFDVHLDLEDRLAKFMKTEEAIIYSYGFATIASAIPAYSKRGDIVFVDRAACFAIQKGLQASRSDIKLFKHNDMADLERLLKEQEIEDQKNPRKARVTRRFIVVEGLYMNTGTICPLPELVKLKYKYKARIFLEESLSFGVLGEHGRGVTEHYGINIDDIDLISANMENALASIGGFCCGRSFVIDHQRLSGQGYCFSASLPPLLAAAAIEALNIMEENPGIFAVLKEKCGQIHKALQGISGLKVVGESLSPAFHLQLEESTGSREQDVRLLQEIVDQCMNRSIALTQARYLEKEEKCLPPPSIRVVVTVEQTEEELERAASTIKEVAQAVLL
One may read the Kd as the free concentration of one partner at which half of the binding sites on the other are occupied at equilibrium, for simple one-to-one binding. B1: the Kd was found to be 350 nM.
